Source: article PMC8510580, “HspB8 prevents aberrant phase transitions of FUS by chaperoning its folded RNA-binding domain” (eLife, 2021)
Numbering of substitutions follows the chain as printed. In names and notes the source's numbering stands.

B1: FUS-G156E-GFP (FUSm) (natural protein, human, UniProt P35637 1-526, looked up)
chain: MASNDYTQQATQSYGAYPTQPGQGYSQQSSQPYGQQSYSGYSQSTDTSGYGQSSYSSYGQSQNTGYGTQSTPQGYGSTGGYGSSQSSQSSYGQQSSYPGYGQQPAPSSTSGSYGSSSQSSSYGQPQSGSYSQQPSYGGQQQSYGQQQSYNPPQGYEQQNQYNSSSGGGGGGGGGGNYGQDQSSMSSGGGSGGGYGNQDQSGGGGSGGYGQQDRGGRGRGGSGGGGGGGGGGYNRSSGGYEPRGRGGGRGGRGGMGGSDRGGFNKFGGPRDQGSRHDSEQDNSDNNTIFVQGLGENVTIESVADYFKQIGIIKTNKKTGQPMINLYTDRETGKLKGEATVSFDDPPSAKAAIDWFDGKEFSGNPIKVSFATRRADFNRGGGNGRGGRGRGGPMGRGGYGGGGSGGGGRGGFPSGGGGGGGQQRAGDWKCPNPTCENMNFSWRNECNQCKAPKPDGPGGGPGGSHMGGNYGDDRRGGRGGYDRGGYRGRGGDRGGFRGGRGGGDRGGFGPGKMDSRGEHRQDRRERPY
notes: FUS (fused in sarcoma), human, UniProt P35637, with G156E; also called FUSm-GFP; source: Sf9 cells, purified as described (Patel et al., 2015); not shown: 5 AA tag used for purification, N-terminal, kept; GFP, C-terminal, kept
B2: HspB8-WT (natural protein, UniProt Q9UJY1 1-196, looked up)
chain: MADGQMPFSCHYPSRLRRDPFRDSPLSSRLLDDGFGMDPFPDDLTASWPDWALPRLSSAWPGTLRSGMVPRGPTATARFGVPAEGRTPPPFPGEPWKVCVNVHSFKPEELMVKTKDGYVEVSGKHEEKQQEGGIVSKNFTKKIQLPAEVDPVTVFASLSPEGLLIIEAPQVPPYSTFGESSFNNELPQDSQEVTCT
notes: small heat shock protein HspB8; IDR printed as AA1-71 and alpha-crystallin domain as AA72-196; The article's keywords name Human as organism; also called small heat shock protein HspB8; source: E. coli BL21 Codon RIL, purified (GST, PreScission cleavage, reverse GST, ResourceQ); not shown: GST, N-terminal, cleaved
B3: HspB8-K141E (natural protein, UniProt Q9UJY1 1-196, looked up)
chain: B2 chain with K141E
notes: small heat shock protein HspB8 with the Charcot-Marie Tooth disease-associated mutation K141E in the alpha-crystallin domain; Same construct as m2 with K141E; also called K141E mutant; HspB8-K141E mutant; source: E. coli BL21 Codon RIL, purified (GST, PreScission cleavage, reverse GST, ResourceQ); not shown: GST, N-terminal, cleaved

How the values were obtained:
Taf-15 = molecular target: T1, Taf-15 (UniProt Q92804 1-592); assay: MST; 33 nM FUSm, partner titrated; non-phase separating conditions (500 mM KCl); conditions: both partners purified
T1 construct: stress granule protein Taf-15; no methods for its production; also called stress granule protein Taf-15

[1] = molecular target: the molecule itself; assay: cross-linking; quantitative XL-MS of FUSm alone: low salt (75 mM KCl, condensates) against high salt (500 mM KCl, no phase separation); 1.9 mM H12/D12 DSS, 30 min, 37°C
FUS-G156E-GFP (FUSm) = molecular target: B1; assay: cross-linking; XL-MS of FUSm (or FUSm_K9) mixed with the partner under condensate-inducing low salt (75 mM): low-salt mixture or dense phase separated by centrifugation; H12/D12 DSS, 30 min, 37°C; also 3 hr after formation and with an RNA oligonucleotide; conditions: both partners purified

T1 sequence (Q92804 whole entry): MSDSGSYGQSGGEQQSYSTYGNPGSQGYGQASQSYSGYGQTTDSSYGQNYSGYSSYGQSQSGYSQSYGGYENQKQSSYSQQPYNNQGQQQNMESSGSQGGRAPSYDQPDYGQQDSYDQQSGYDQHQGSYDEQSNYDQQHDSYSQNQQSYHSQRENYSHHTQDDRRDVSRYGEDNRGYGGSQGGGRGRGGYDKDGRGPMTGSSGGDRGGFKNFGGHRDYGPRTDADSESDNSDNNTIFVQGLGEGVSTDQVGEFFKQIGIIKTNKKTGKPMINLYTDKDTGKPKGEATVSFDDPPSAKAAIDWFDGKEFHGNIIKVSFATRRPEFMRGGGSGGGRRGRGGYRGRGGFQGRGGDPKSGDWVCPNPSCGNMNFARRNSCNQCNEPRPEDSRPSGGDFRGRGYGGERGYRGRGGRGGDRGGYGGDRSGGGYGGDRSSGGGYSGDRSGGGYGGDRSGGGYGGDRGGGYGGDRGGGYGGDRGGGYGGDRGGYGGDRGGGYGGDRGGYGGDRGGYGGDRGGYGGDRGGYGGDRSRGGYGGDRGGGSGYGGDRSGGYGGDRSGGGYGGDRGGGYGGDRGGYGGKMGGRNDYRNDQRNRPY

Row | Binder | Kd (Taf-15) [nM] | binding result [1] | binding result (FUS-G156E-GFP (FUSm))
1 | B1 | 260 | binds | –
2 | B2 | – | – | binds
3 | B3 | – | – | binds
